Tested on: Escherichia coli TOP10
Assay: shrunken log2 fold change of peptide-encoding DNA abundance (4.5 h post-induction vs induction); higher = less antimicrobial activity (less host growth inhibition)
Details: time post-induction: 4.5 h; library: site-saturation at positions 5, 18, 19, 20
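Note: peptides expressed intracellularly from a pBAD plasmid library in pooled LB shake-flask culture, induced with 0.3% L-arabinose, DNA abundance read by NGS, three biological replicates, DESeq2 with apeglm shrinkage.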

Sequence	shrunken log2 fold change
RRIRGRPPRLPRPRPRPQGSPRP	-0.0808
RRIRLRPPRLPRPRPRPPRSPRP	0.422
RRIRVRPPRLPRPRPRPWVDPRP	0.0379
RRIRVRPPRLPRPRPRPHGKPRP	-0.389
RRIRRRPPRLPRPRPRPPARPRP	0.762
RRIRKRPPRLPRPRPRPDFWPRP	1.06
RRIRMRPPRLPRPRPRPPPQPRP	1.79
RRIRYRPPRLPRPRPRPRKAPRP	0.00796
RRIRLRPPRLPRPRPRPEHMPRP	-0.336
RRIRSRPPRLPRPRPRPCHPPRP	0.0162
RRIRCRPPRLPRPRPRPHASPRP	-0.224
RRIRGRPPRLPRPRPRPTCGPRP	0.915
RRIRMRPPRLPRPRPRPQYAPRP	0.0122
RRIRFRPPRLPRPRPRPDATPRP	0.486
RRIRQRPPRLPRPRPRPDNWPRP	-0.117
RRIRERPPRLPRPRPRPWDMPRP	-0.212
RRIRFRPPRLPRPRPRPTITPRP	-0.513
RRIRARPPRLPRPRPRPQKMPRP	-0.000461
RRIRLRPPRLPRPRPRPQYHPRP	-0.895
RRIRKRPPRLPRPRPRPWYIPRP	-0.568

Sequence	shrunken log2 fold change
RRIRKRPPRLPRPRPRPDCYPRP	0.012
RRIRARPPRLPRPRPRPGMKPRP	0.186
RRIRMRPPRLPRPRPRPSRCPRP	0.274
RRIRGRPPRLPRPRPRPSFEPRP	0.647
RRIRQRPPRLPRPRPRPQMGPRP	-0.553
RRIRQRPPRLPRPRPRPDRRPRP	0.00167
RRIRMRPPRLPRPRPRPSIWPRP	-0.255
RRIRTRPPRLPRPRPRPMPKPRP	0.116
RRIRPRPPRLPRPRPRPVKAPRP	0.216
RRIRGRPPRLPRPRPRPYFLPRP	-0.345
RRIRARPPRLPRPRPRPVNYPRP	-0.476
RRIRLRPPRLPRPRPRPGYTPRP	-0.349
RRIRMRPPRLPRPRPRPERKPRP	2.06
RRIRTRPPRLPRPRPRPQMSPRP	0.056
RRIRDRPPRLPRPRPRPSAHPRP	0.127
RRIRFRPPRLPRPRPRPCDFPRP	-0.255
RRIRRRPPRLPRPRPRPYMPPRP	-0.186
RRIRPRPPRLPRPRPRPYCAPRP	-0.312
RRIRTRPPRLPRPRPRPNCRPRP	-0.00739
RRIRYRPPRLPRPRPRPNTWPRP	-0.204

Sequence	shrunken log2 fold change
RRIRDRPPRLPRPRPRPHMAPRP	-0.232
RRIRIRPPRLPRPRPRPFNCPRP	-0.0819
RRIRVRPPRLPRPRPRPHHVPRP	-0.261
RRIRERPPRLPRPRPRPGPQPRP	0.231
RRIRRRPPRLPRPRPRPKMWPRP	0.216
RRIRVRPPRLPRPRPRPDPKPRP	0.203
RRIRPRPPRLPRPRPRPWNCPRP	-0.134
RRIRTRPPRLPRPRPRPKGNPRP	-0.403
RRIRGRPPRLPRPRPRPHFTPRP	0.233
RRIRHRPPRLPRPRPRPTHSPRP	-0.192
RRIRTRPPRLPRPRPRPIDEPRP	0.0904
RRIRWRPPRLPRPRPRPTKKPRP	0.0726
RRIRPRPPRLPRPRPRPTDAPRP	0.12
RRIRFRPPRLPRPRPRPKFVPRP	-0.0222
RRIRKRPPRLPRPRPRPDVAPRP	0.0256
RRIRMRPPRLPRPRPRPPSMPRP	0.761
RRIRDRPPRLPRPRPRPFNTPRP	-0.686
RRIRNRPPRLPRPRPRPSQTPRP	-0.00249
RRIRLRPPRLPRPRPRPPKHPRP	0.117
RRIRGRPPRLPRPRPRPCSKPRP	0.09
